Patent publication US20180362665A1 (KATHOLIEKE UNIVERSITEIT LEUVEN, published 2018)

Molecular target: ovine ADAMTS13 (in sheep plasma) (sheep)
Experiment: cell-based or functional assay

B1: anti-ADAMTS13 monoclonal antibody 17C7 (antibody, V domains shown)
VH: EVQLVESGGDLVKSGGSLKLSCAASGFIFSNYAMSWVRQTPEKRLEWGATITTGGFYTFYSDSVKGRFTISRDNAKNTLYLQMSSLRSEDTAMYYCARHRYDDYYALDYWGQGTSVTVSS
VL: ENVLTQSPAIMSTSPGEKVTMTCNVSSSVSYMRWFQQKSSTSPKLWIYDTSKLASGVPGRFSGSGSGHSYSLTISSMEADDVATYYCFQGNGYPLTFGAGTKLELK
half maximal inhibitory concentration (IC50) of ADAMTS13 activity in ovine plasma, FRETS-VWF71 assay: 2.4 µg/mL
